Protein stability index data for 94 variants are collected here from the supplement of paper PMC10567573.

First the molecules themselves.
B1: NEK8 (parent)
chain: YTFGSNQHGQLGTNTRRGSRAPCK
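Further: lentivirally expressed fusions sorted by FACS into six bins by GFP to DsRed ratio, PSI derived from sequencing read proportions per bin multiplied by bin number.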

In the data set the parent is B1. Description: protein stability index of a GFP-peptide fusion (GPS, HEK-293T) (PSI 1-6); higher = more stable. To be noted: c terminus: a fixed tail appended.
As to YTFGSNQHGVLGTNTRRGSRAPCK, the protein stability index is 3.31.

YTFGSNQHGILGTNTRRGSRAPCK: the protein stability index worked out at 3.47.

As to YTFGSNQHGLLGTNTRRGSRAPCK, the protein stability index stood at 3.36.

For YTFGSNQHGNLGTNTRRGSRAPCK, the protein stability index was 3.83.

Turning to YTFGSNQHGFLGTNTRRGSRAPCK, the protein stability index turned out to be 3.33.

Turning to YTFGSNQHGRLGTNTRRGSRAPCK, the protein stability index is 3.82.

Regarding YTFGSNQHGDLGTNTRRGSRAPCK, the protein stability index was found to be 4.45.

Turning to YTFGSNQHGPLGTNTRRGSRAPCK, the protein stability index is 4.

For YTFGSNQHGWLGTNTRRGSRAPCK, the protein stability index is 1.52.

Regarding YTFGSNQHGYLGTNTRRGSRAPCK, the protein stability index was 3.52.

In the case of YTFGSNQHGALGTNTRRGSRAPCK, the protein stability index amounted to 4.21.

As to YTFGSNQHGMLGTNTRRGSRAPCK, the protein stability index is 3.58.

On to YTFGSNQHGKLGTNTRRGSRAPCK, for which the protein stability index came to 3.41.

With YTFGSNQHGTLGTNTRRGSRAPCK, the protein stability index was 4.32.

As for YTFGSNQHGHLGTNTRRGSRAPCK, the protein stability index worked out at 3.89.

Turning to YTFGSNQHGCLGTNTRRGSRAPCK, the protein stability index amounted to 3.36.

On to YTFGSNQHGSLGTNTRRGSRAPCK, for which the protein stability index stood at 3.58.

For YTFGSNQHGELGTNTRRGSRAPCK, the protein stability index amounted to 4.33.

Turning to YTFGSNQHGGLGTNTRRGSRAPCK, the protein stability index is 4.08.

For the variant YTFGSNQHGQLGTNTKRGSRAPCK, the protein stability index came out at 3.67.

For the variant YTFGSNQHGQLGTNTCRGSRAPCK, the protein stability index is 3.36.

Regarding YTFGSNQHGQLGTNTARGSRAPCK, the protein stability index stood at 3.81.

Consider YTFGSNQHGQLGTNTGRGSRAPCK, for which the protein stability index amounted to 4.24.

In the case of YTFGSNQHGQLGTNTHRGSRAPCK, the protein stability index is 4.25.

With YTFGSNQHGQLGTNTYRGSRAPCK, the protein stability index came out at 3.37.

As to YTFGSNQHGQLGTNTERGSRAPCK, the protein stability index stood at 3.63.

As for YTFGSNQHGQLGTNTFRGSRAPCK, the protein stability index was 2.57.

For the variant YTFGSNQHGQLGTNTNRGSRAPCK, the protein stability index turned out to be 4.02.

As to YTFGSNQHGQLGTNTTRGSRAPCK, the protein stability index came out at 4.21.

For the variant YTFGSNQHGQLGTNTQRGSRAPCK, the protein stability index is 3.97.

For YTFGSNQHGQLGTNTDRGSRAPCK, the protein stability index is 4.05.

With YTFGSNQHGQLGTNTSRGSRAPCK, the protein stability index is 3.85.

Take YTFGSNQHGQLGTNTIRGSRAPCK: the protein stability index was 3.56.

Take YTFGSNQHGQLGTNTMRGSRAPCK: the protein stability index was determined as 3.63.

For YTFGSNQHGQLGTNTPRGSRAPCK, the protein stability index is 3.94.

Regarding YTFGSNQHGQLGTNTWRGSRAPCK, the protein stability index was 1.8.

As for YTFGSNQHGQLGTNTLRGSRAPCK, the protein stability index stood at 3.82.

As for YTFGSNQHGQLGTNTVRGSRAPCK, the protein stability index was determined as 3.99.

Take YTFGSNNHGQLGTNTRRGSRAPCK: the protein stability index came to 4.06.

On to YTFGSNKHGQLGTNTRRGSRAPCK, for which the protein stability index turned out to be 3.8.

Take YTFGSNYHGQLGTNTRRGSRAPCK: the protein stability index stood at 3.09.

As to YTFGSNWHGQLGTNTRRGSRAPCK, the protein stability index was found to be 2.73.

As for YTFGSNRHGQLGTNTRRGSRAPCK, the protein stability index was 3.81.

Regarding YTFGSNMHGQLGTNTRRGSRAPCK, the protein stability index came to 3.66.

Take YTFGSNTHGQLGTNTRRGSRAPCK: the protein stability index was 4.28.

With YTFGSNPHGQLGTNTRRGSRAPCK, the protein stability index was 3.81.

In the case of YTFGSNSHGQLGTNTRRGSRAPCK, the protein stability index came out at 3.58.

In the case of YTFGSNLHGQLGTNTRRGSRAPCK, the protein stability index was 2.28.

In the case of YTFGSNVHGQLGTNTRRGSRAPCK, the protein stability index was 3.84.

With YTFGSNQHGQLGTNKRRGSRAPCK, the protein stability index amounted to 3.94.

Consider YTFGSNQHGQLGTNPRRGSRAPCK, for which the protein stability index was 3.6.

As to YTFGSNQHGQLGTNVRRGSRAPCK, the protein stability index stood at 4.17.

Take YTFGSNQHGQLGTNGRRGSRAPCK: the protein stability index came to 3.77.

Turning to YTFGSNQHGQLGTNERRGSRAPCK, the protein stability index was 4.17.

As for YTFGSNQHGQLGTNYRRGSRAPCK, the protein stability index was 3.67.

As for YTFGSNQHGQLGTNHRRGSRAPCK, the protein stability index was 4.05.

As to YTFGSNQHGQLGTNFRRGSRAPCK, the protein stability index came out at 3.56.

With YTFGSNQHGQLGTNDRRGSRAPCK, the protein stability index came to 3.85.

As to YTFGSNQHGQLGTNIRRGSRAPCK, the protein stability index stood at 4.14.

Turning to YTFGSNQHGQLGTNNRRGSRAPCK, the protein stability index was determined as 3.82.

On to YTFGSNQHGQLGTNSRRGSRAPCK, for which the protein stability index is 4.28.

With YTFGSNQHGQLGTNLRRGSRAPCK, the protein stability index was 3.7.

For the variant YTFGSNQHGQLGTNMRRGSRAPCK, the protein stability index is 4.09.

YTFGSNQHGQLGTNWRRGSRAPCK: the protein stability index stood at 3.49.

For YTFGSNQHGQLGTNCRRGSRAPCK, the protein stability index amounted to 3.56.

As to YTFGSNQHGQLGTNQRRGSRAPCK, the protein stability index is 4.25.

With YTFGSNQHGQLGTNRRRGSRAPCK, the protein stability index came out at 3.98.

In the case of YTFGSNQHGQLGTNARRGSRAPCK, the protein stability index is 3.9.

In the case of YTFGSNQHGQHGTNTRRGSRAPCK, the protein stability index is 4.23.

On to YTFGSNQHGQFGTNTRRGSRAPCK, for which the protein stability index turned out to be 3.76.

As for YTFGSNQHGQIGTNTRRGSRAPCK, the protein stability index is 3.93.

Turning to YTFGSNQHGQCGTNTRRGSRAPCK, the protein stability index was determined as 4.02.

Turning to YTFGSNQHGQMGTNTRRGSRAPCK, the protein stability index was 4.01.

In the case of YTFGSNQHGQGGTNTRRGSRAPCK, the protein stability index is 4.53.

On to YTFGSNQHGQRGTNTRRGSRAPCK, for which the protein stability index worked out at 4.65.

Take YTFGSNQHGQVGTNTRRGSRAPCK: the protein stability index was 4.1.

Turning to YTFGSNQHGQSGTNTRRGSRAPCK, the protein stability index is 4.94.

As for YTFGSNQHGQNGTNTRRGSRAPCK, the protein stability index turned out to be 4.3.

With YTFGSNQHGQDGTNTRRGSRAPCK, the protein stability index was determined as 4.49.

For YTFGSNQHGQTGTNTRRGSRAPCK, the protein stability index came to 4.43.

As to YTFGSNQHGQWGTNTRRGSRAPCK, the protein stability index was determined as 3.22.

As to YTFGSNQHGQYGTNTRRGSRAPCK, the protein stability index stood at 3.95.

As for YTFGSNQHGQEGTNTRRGSRAPCK, the protein stability index was found to be 4.53.

Turning to YTFGSNQHGQKGTNTRRGSRAPCK, the protein stability index stood at 3.56.

YTFGSNQHGQPGTNTRRGSRAPCK: the protein stability index amounted to 4.22.

For YTFGSNQHGQAGTNTRRGSRAPCK, the protein stability index came to 4.38.

With YTFGSNQHGQQGTNTRRGSRAPCK, the protein stability index was determined as 4.49.

Regarding YTFGSNQHGQLGVNTRRGSRAPCK, the protein stability index is 3.67.

Regarding YTFGSNQHGQLGANTRRGSRAPCK, the protein stability index amounted to 4.44.

YTFGSNQHGQLGQNTRRGSRAPCK: the protein stability index came out at 4.35.

On to YTFGSNQHGQLGRNTRRGSRAPCK, for which the protein stability index was found to be 4.11.

With YTFGSNQHGQLGLNTRRGSRAPCK, the protein stability index worked out at 3.58.

As for YTFGSNQHGQLGDNTRRGSRAPCK, the protein stability index came to 4.44.

Take YTFGSNQHGQLGMNTRRGSRAPCK: the protein stability index turned out to be 3.72.
